The results in this text go back to patent EP2329839B1.

Test [1] concerns the target µ opioid receptor (MOP-R) on mouse POMC neurons (mouse) (UniProt P42866). Put plainly: cell-based or functional assay.
Test [2] concerns the target MC3-R (mouse arcuate nucleus) (mouse) (UniProt P33033). The test is described as follows: cell-based or functional assay.
Test [3] deals with T1, NPY Y2 receptor (on cell lines expressing it).
T1 sequence (P49146 whole entry, species assumed, looked up): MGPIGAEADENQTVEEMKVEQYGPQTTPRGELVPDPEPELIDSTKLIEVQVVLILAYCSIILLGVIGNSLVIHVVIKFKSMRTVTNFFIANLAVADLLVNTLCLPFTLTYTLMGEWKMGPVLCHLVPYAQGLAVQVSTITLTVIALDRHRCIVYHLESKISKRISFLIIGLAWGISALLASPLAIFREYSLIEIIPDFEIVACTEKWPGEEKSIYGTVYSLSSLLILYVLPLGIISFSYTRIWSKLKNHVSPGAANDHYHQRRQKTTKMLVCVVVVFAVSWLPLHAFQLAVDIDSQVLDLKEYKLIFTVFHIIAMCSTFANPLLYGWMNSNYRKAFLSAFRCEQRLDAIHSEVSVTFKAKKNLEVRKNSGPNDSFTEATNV
Put plainly: receptor-binding studies on cell lines expressing the NPY Y2 receptor; labelled ligand not named.

Values joined by “and” are separate entries in the source; they are usually repeats but may differ in a detail not shown here. Identical values can stand only once. Where no end group is shown, it is not given here.

UniProt P42866, sequence (P42866 whole entry): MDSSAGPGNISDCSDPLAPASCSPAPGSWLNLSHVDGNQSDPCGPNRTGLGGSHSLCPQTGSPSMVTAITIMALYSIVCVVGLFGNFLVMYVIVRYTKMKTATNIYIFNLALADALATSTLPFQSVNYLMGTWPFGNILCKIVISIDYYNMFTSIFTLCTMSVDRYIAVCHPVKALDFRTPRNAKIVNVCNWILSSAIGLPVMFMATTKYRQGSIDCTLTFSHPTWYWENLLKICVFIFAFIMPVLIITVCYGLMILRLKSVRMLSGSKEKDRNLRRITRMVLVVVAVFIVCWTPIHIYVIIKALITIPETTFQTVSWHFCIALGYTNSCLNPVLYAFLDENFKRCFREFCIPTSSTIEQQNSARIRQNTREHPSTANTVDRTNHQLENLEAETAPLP
UniProt P33033, sequence (P33033 whole entry): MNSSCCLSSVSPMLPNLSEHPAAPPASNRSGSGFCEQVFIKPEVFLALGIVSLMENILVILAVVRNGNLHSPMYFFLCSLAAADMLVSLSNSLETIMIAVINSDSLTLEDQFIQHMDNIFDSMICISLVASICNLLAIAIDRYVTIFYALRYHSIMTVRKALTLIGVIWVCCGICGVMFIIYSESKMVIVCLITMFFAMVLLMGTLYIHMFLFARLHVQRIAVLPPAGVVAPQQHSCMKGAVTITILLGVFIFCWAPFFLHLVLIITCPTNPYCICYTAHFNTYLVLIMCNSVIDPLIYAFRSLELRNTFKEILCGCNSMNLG

For the molecule met-enkephalin (peptide), the hyperpolarization of the membrane potential of POMC cells (whole cell recording, mouse slices) in test [1] is 10 mV and 20 mV. In test [2], D-Trp^8-γMSH (peptide) showed a frequency of GABAergic IPSCs recorded from POMC neurons of 280%.

In general, IC50 refers to the point on the concentration scale where inhibition reaches its midpoint. The molecule Ac-LRHYLNLLTRQRY (ends and bridges not checked) [N-acetyl (Leu^28, Leu^31) NPY (24-36)] yielded an IC50 in test [3] of 1.3 nM.
